{
  "source": "patent US8241627B2",
  "about": "“Modified polypeptides stabilized in a desired conformation and methods for producing same” (The Center for Blood Research, Inc., priority 2000, dated 2012)",
  "assay_type_in_all_cases": "cell-based",
  "key": {"wild-type LFA-1": {"target": "T1, wild-type LFA-1 (Homo sapiens, UniProt P20701)", "T1 construct": "expressed in transfected cells", "T1 sequence (P20701 26-1170)": "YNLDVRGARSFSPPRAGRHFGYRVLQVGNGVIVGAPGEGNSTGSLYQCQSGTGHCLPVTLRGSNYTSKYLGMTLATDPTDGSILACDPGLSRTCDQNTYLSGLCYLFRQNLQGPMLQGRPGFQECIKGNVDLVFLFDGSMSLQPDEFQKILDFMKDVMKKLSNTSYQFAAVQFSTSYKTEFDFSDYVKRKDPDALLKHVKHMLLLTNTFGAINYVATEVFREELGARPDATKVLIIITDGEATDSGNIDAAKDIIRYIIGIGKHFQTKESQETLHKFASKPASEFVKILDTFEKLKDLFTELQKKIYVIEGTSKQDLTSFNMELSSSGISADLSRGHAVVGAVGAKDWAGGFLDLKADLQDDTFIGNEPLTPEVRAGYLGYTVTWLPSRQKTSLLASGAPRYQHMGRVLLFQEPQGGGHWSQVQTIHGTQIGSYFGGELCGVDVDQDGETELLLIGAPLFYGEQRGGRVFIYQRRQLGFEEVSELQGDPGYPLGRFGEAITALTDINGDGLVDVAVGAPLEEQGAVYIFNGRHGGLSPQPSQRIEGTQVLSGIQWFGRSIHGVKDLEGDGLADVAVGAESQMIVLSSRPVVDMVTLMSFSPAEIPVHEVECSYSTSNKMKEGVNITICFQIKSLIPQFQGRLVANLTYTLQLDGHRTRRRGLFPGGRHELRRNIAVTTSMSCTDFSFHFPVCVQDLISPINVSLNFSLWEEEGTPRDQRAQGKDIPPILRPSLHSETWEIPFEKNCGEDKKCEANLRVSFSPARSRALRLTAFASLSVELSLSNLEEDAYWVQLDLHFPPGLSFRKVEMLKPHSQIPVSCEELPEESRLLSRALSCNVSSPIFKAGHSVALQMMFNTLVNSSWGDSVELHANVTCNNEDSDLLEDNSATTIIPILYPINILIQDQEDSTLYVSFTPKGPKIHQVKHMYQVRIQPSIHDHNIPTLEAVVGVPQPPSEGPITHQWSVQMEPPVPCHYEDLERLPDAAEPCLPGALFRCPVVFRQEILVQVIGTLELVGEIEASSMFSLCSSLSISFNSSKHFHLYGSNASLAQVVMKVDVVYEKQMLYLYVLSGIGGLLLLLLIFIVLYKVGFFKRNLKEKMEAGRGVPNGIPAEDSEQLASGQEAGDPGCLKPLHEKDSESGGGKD", "T1 sequence (P05107 23-769 partner)": "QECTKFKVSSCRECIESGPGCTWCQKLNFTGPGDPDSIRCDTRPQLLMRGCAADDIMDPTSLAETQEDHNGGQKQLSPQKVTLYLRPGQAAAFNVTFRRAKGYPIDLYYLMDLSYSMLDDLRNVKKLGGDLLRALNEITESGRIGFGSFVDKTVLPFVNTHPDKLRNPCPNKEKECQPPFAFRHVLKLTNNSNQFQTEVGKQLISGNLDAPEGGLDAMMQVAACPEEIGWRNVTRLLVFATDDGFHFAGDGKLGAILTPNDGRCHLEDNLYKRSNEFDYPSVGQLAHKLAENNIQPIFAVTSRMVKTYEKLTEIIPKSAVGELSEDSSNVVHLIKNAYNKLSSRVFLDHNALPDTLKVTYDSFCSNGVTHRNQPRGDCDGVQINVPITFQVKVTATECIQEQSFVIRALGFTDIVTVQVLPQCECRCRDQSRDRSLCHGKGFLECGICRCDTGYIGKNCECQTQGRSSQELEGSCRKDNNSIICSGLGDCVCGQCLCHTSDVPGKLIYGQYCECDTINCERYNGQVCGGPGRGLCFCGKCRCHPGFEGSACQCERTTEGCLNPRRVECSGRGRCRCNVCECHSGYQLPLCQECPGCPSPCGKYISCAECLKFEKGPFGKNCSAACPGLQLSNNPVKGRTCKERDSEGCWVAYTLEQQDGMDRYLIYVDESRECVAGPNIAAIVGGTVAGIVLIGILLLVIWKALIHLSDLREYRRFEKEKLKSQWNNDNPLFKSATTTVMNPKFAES", "assay": "Inhibition of binding of wild-type LFA-1 transfectants to immobilized ICAM-1", "conditions": "lovastatin 0-50 μM; cells stimulated with Mn2+ or antibody CBRLFA1/2", "method": "(§1) Briefly, ICAM-1 was purified from human tonsil, and coated to 96-well plates as described previously (Lu, C and Springer T A, (1997) J Immunol 159:268-278). Cells were labeled with a florescence dye 2′,7′-bis-(carboxyethyl)-5(and-6)-carboxyfluorescein, acetoxymethyl ester (BCECF-AM), and resuspended to 1×10^6/ml in L15/FBS. 50 μl cell suspension was mixed in ICAM-1 coated wells with an equal volume of L15/FBS in the absence or presence of monoclonal antibody (CBRLFA-1/2, 10 μg/ml). Monoclonal antibodies were used at final concentration of 1:20 hybridoma supernatant, 1:200 ascites, or μg/ml purified IgG. For testing the effect of divalent cations, BCECF-AM-labeled cells were washed 2× with TS buffer, pH7.5 (20 mM Tris, pH 7.5, 150 mMNaCl) containing 5 mM EDTA, followed by 2 washes with TS buffer, pH7.5. […] The fluorescence content of total input cells and the bound cells in each well was quantitated on a Fluorescent Concentration Analyzer (IDEXX, Westbrook, Me.). The bound cells were expressed as a percentage of total input cells per sample well. […]\n(§2) The high affinity open I-domains of the invention can be used to discriminate between direct/competitive and indirect/non-competitive modes of inhibition of LFA-1. […] Accordingly, the ability of lovastatin to inhibit ligand binding of the high-affinity I-domain (K287C/K294C) was assessed. […]"}, "LFA-1 mutant K287C/K294C": {"target": "T2, LFA-1 mutant K287C/K294C (Homo sapiens, UniProt P20701, K312C/K319C)", "T2 construct": "expressed in transfected cells", "T2 sequence (P20701 26-1170 K312C/K319C)": "as the sequence (P20701 26-1170) above, with K287C, K294C counted along it", "T2 sequence (P05107 23-769 partner)": "as the sequence (P05107 23-769 partner) above", "assay": "Inhibition of binding of mutant K287C/K294C LFA-1 transfectants to immobilized ICAM-1", "conditions": "lovastatin 0-50 μM", "method": "as §1, §2"}, "ICAM-1": {"target": "T3, ICAM-1 (Homo sapiens, UniProt P05362)", "T3 construct": "ICAM-1 was purified from human tonsil; from tissue; host or cells: human tonsil", "T3 sequence (P05362 28-532)": "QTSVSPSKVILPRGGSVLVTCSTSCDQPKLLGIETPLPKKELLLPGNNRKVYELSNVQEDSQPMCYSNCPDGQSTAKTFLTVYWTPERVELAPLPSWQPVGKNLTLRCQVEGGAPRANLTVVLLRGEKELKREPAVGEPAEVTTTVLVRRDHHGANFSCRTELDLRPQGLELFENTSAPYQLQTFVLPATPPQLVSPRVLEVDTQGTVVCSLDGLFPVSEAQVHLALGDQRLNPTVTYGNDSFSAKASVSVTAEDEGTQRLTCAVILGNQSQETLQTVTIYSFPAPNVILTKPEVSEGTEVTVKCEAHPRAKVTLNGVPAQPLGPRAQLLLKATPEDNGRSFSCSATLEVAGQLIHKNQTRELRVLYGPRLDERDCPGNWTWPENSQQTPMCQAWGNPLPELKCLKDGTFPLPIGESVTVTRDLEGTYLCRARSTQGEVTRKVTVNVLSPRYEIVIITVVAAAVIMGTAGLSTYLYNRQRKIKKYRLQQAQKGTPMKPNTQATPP", "assay": "Binding of LFA-1 or isolated I-domain transfectants to immobilized ICAM-1", "conditions": "for binding of 293T transient transfectants to immobilized ICAM-1: no activating antibody", "method": "Clones of the transfectants that expressed similar levels of cell surface LFA-1, as determined by flow cytometry using monoclonal antibody TS2/4 (FIG. 3B), were tested for their ability to bind to immobilized ICAM-1, as previously described (Lu, C and Springer, T A (1997) J Immunol 159:268-278).\nBriefly, ICAM-1 was purified from human tonsil, and coated to 96-well plates as described previously (Lu, C and Springer T A, (1997) J Immunol 159:268-278). Cells were labeled with a florescence dye 2′,7′-bis-(carboxyethyl)-5(and-6)-carboxyfluorescein, acetoxymethyl ester (BCECF-AM), and resuspended to 1×10^6/ml in L15/FBS. 50 μl cell suspension was mixed in ICAM-1 coated wells with an equal volume of L15/FBS in the absence or presence of monoclonal antibody (CBRLFA-1/2, 10 μg/ml). Monoclonal antibodies were used at final concentration of 1:20 hybridoma supernatant, 1:200 ascites, or μg/ml purified IgG. For testing the effect of divalent cations, BCECF-AM-labeled cells were washed 2× with TS buffer, pH7.5 (20 mM Tris, pH 7.5, 150 mMNaCl) containing 5 mM EDTA, followed by 2 washes with TS buffer, pH7.5. Cells were then resuspended to 5×10^5/ml in the TS buffer, pH7.5 supplemented with 1 mM MgCl2/CaCl2, MgCl2, MnCl2 mM EDTA, and 100 μl cell suspension was added to ICAM-1 coated wells. After incubation at 37° C. for 30 minutes, unbound cells were washed off on a Microplate Autowasher (Bio-Tek Instruments, Winooski, Vt.). The fluorescence content of total input cells and the bound cells in each well was quantitated on a Fluorescent Concentration Analyzer (IDEXX, Westbrook, Me.). The bound cells were expressed as a percentage of total input cells per sample well.\nFor generating stable K562 transfectants that express the I-domain on the surface, 20 μg of SspI-linearized pcDNA3.1/Hygro(+) containing the sequences encoding the I domain and the PDGFR transmembrane domain was used to transfect K562 cells by electroporation as described above. Transfectants were selected for resistance to 100 μg/ml hygromycin B, and were further subcloned by cell sorting and limiting dilution; clones that expressed similar levels of surface wild-type and mutant I domain-PDGFR were selected for functional studies. Stable cell lines were maintained in RPMI medium 1640 supplemented with 10% FBS and 100 μg/ml hygromycin B. Cell surface expression of the isolated I-domains was determined by flow cytometry using antibody TS1/22 to the I-domain (FIG. 7). Two clones from each transfectant were selected and tested for binding to immobilized ICAM-1, and similar results were obtained with each of the two clones (FIG. 8A).\nIf the constitutive ligand binding activity of mutant K287C/K294C is due to the formation of a disulfide bond between the introduced C287 and C294, disruption of the disulfide bond with a reducing agent would abolish ligand binding ability of the mutant. Accordingly, the transfectants were treated with the reducing agent DTT (10 mM) in L15/FBS containing Mg^2+ and Ca^2+, and the ability of transfectants to bind to ICAM-1 was assessed.\nFurthermore, the effect of divalent cations on ligand binding of the isolated I-domains expressed on the surface of K562 transfectants was tested. The binding reactions were performed in HEPES/NaCl/glucose (20 mM HEPES, pH 7.5, 140 mM NaCl, 2 mg/ml glucose) supplemented with 1 mM […], 1 mM Mg^2+, or 1 mM EDTA."}, "iC3b": {"target": "T4, iC3b (Homo sapiens, UniProt P01024)", "T4 construct": "mutant to iC3b coated on plastic", "T4 sequence (P01024 23-667 limits assumed)": "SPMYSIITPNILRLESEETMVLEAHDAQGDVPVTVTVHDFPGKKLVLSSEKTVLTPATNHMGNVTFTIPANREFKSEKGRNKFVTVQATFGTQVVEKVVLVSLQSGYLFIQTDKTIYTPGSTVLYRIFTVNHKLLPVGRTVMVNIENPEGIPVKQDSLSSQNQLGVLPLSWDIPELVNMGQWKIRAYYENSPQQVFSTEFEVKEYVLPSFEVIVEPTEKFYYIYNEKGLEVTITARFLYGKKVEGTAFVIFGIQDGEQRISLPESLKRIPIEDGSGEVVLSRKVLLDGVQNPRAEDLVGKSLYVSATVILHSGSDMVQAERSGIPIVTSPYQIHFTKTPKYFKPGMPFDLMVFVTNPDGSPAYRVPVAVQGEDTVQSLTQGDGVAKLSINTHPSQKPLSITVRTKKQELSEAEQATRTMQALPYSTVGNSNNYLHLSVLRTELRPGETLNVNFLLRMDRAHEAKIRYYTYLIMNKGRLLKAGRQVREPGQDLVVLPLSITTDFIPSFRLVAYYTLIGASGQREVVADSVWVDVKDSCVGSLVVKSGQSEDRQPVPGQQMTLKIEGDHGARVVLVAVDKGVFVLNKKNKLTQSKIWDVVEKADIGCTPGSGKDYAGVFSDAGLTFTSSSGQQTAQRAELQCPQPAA", "T4 sequence (P01024 749-1303 limits assumed)": "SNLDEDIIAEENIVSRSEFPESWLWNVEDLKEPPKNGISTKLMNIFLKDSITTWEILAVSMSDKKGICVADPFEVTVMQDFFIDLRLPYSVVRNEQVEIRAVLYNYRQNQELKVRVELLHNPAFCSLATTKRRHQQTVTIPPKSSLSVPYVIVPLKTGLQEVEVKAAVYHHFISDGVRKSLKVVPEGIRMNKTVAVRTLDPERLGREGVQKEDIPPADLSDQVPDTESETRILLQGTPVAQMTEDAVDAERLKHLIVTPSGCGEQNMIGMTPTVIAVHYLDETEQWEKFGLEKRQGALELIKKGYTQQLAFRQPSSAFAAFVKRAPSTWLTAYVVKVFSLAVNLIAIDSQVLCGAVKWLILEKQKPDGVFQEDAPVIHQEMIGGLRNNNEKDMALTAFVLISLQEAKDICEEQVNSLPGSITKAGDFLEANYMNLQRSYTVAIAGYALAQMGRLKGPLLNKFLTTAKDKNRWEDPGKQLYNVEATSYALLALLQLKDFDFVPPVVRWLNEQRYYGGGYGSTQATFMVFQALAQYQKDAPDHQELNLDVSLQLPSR", "T4 sequence (P01024 1321-1663 limits assumed)": "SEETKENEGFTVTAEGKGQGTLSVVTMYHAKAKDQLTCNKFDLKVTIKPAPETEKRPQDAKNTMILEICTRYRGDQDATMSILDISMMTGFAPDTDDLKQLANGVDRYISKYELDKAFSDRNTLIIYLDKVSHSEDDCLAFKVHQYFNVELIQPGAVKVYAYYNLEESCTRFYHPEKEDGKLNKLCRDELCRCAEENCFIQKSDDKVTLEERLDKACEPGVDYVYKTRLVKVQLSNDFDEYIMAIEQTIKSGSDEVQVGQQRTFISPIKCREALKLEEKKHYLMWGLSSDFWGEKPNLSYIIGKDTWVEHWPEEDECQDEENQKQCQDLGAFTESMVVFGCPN", "assay": "Adhesion of αMβ2 (Mac-1) or αM I-domain transfectants to immobilized iC3b", "from_the_text": "In order to assess the effect of the introduction of pairs of potentially disulfide bond-forming cysteines into the I-domain of αMβ2 on CBRM 1/5 activation-dependent epitope expression and ligand binding, plasmids encoding the wild-type or mutant αM subunits and the β2 subunit were co-transfected into 293T and K562 cells. α.β heterodimer formation was confirmed using monoclonal antibody CBRM1/32 which recognizes an epitope in the putative β-propeller domain of the αM subunit only after association with the β2 subunit, and antibody CBRM1/5 was used to detect integrin activation.\nAlternatively, isolated Mac-1 mutant I-domains were expressed on the cell surface in conjunction with an artificial signal sequence and transmembrane domain of the PDGF receptor. Adhesion was assayed in L15/FBS/MnCl2 at 37° C.\nIn a further study, the open I-domain mutants Q 163C/Q309C and D294C/Q311C were stably expressed in K562 cells, and clones expressing the same levels of receptors were selected. Adhesion assays to immobilized iC3b were performed with L15/FBS at 37° C.\nBinding of αMβ2 transfectants containing mutant I-domains to immobilized iC3b on plastic was tested in the presence and absence of DTT."}},
  "data": [
    {"compound": "CC[C@H](C)C(=O)O[C@H]1C[C@@H](C)C=C2C=C[C@H](C)[C@H](CC[C@@H]3C[C@@H](O)CC(=O)O3)[C@H]21", "note": "[lovastatin]", "values": [
      {"measurement": "inhibition of ICAM-1 binding by cells expressing wild-type LFA-1", "setting": "wild-type LFA-1", "result": "inhibits"},
      {"measurement": "interference with ligand binding by the high affinity open K287C/K294C mutant", "setting": "LFA-1 mutant K287C/K294C", "result": "does not interfere"}
    ]},
    {"compound": "K294C: single cysteine substitution mutant of LFA-1 αL", "values": [
      {"measurement": "binding of 293T transient transfectants to immobilized ICAM-1", "setting": "ICAM-1; 293T", "result": "comparable to that of the wild-type"}
    ]},
    {"compound": "L289C: single cysteine substitution mutant of LFA-1 αL", "values": [
      {"measurement": "binding of 293T transient transfectants to immobilized ICAM-1 with activating mAb CBRLFA-1/2", "setting": "ICAM-1; 293T, CBRLFA-1/2 10 μg/ml", "result": "increased"},
      {"measurement": "binding of 293T transient transfectants to immobilized ICAM-1", "setting": "ICAM-1; 293T", "result": "reduced binding"}
    ]},
    {"compound": "Wild type: wild-type αMβ2 (Mac-1) transfectant", "values": [
      {"measurement": "effect of DTT on binding of intact αMβ2", "setting": "iC3b; DTT", "result": "increased binding"},
      {"measurement": "adhesion of αMβ2 transfectant to iC3b, +DTT +activation", "setting": "iC3b; DTT treatment, activated by mAb CBR LFA-1/2", "result": "++++ (++++: 75-100% of binding by activated wild type transfectant)"},
      {"measurement": "adhesion of αMβ2 transfectant to iC3b, +DTT −activation", "setting": "iC3b; DTT treatment, no activating mAb", "result": "++ (++25-50%)"},
      {"measurement": "ligand binding (iC3b) of intact αMβ2 heterodimer in K562 stable transfectants", "setting": "iC3b; K562, L15/FBS at 37° C.", "result": "little basal activity"},
      {"measurement": "adhesion of αMβ2 transfectant to iC3b, −DTT +activation", "setting": "iC3b; no DTT, activated by mAb CBR LFA-1/2", "result": "++++ (++++: 75-100% of binding by activated wild type transfectant)"},
      {"measurement": "adhesion of αMβ2 transfectant to iC3b, −DTT −activation", "setting": "iC3b; no DTT, no activating mAb", "result": "± (+−.: 0-5%)"}
    ]},
    {"compound": "wild-type LFA-1: wild-type human αL/β2 (LFA-1) expressed on 293T or K562 transfectants [reference compound]", "values": [
      {"measurement": "binding of 293T transient transfectants to immobilized ICAM-1", "setting": "ICAM-1; 293T", "result": "constitutively strong binding"},
      {"measurement": "binding of K562 stable transfectants to immobilized ICAM-1 with activating mAb CBRLFA-1/2", "setting": "ICAM-1; K562, CBRLFA-1/2 10 μg/ml", "result": "greatly increased"},
      {"measurement": "effect of Mn2+ and Mg2+ on binding of K562 transfectants to ICAM-1", "setting": "ICAM-1; K562, intact LFA-1, Mn2+ / Mg2+", "result": "greatly enhanced"},
      {"measurement": "binding of K562 stable transfectants to immobilized ICAM-1", "setting": "ICAM-1; K562, no activating antibody", "result": "low basal binding"},
      {"measurement": "effect of DTT treatment on binding to ICAM-1", "setting": "ICAM-1; K562 transfectants, DTT 10 mM in L15/FBS", "result": "increased binding"}
    ]}
  ]
}
